Key:
[1] = tested on: HPV type 11; experiment: quantitative reverse transcriptase PCR (QRT-PCR) antiviral assay against HPV type 11 in A-431 cells; format: cell-based, type 11 human papillomavirus; conditions: HPV-11 in A-431 cells
Protocol: To evaluate the activity of the tested RNases against type 11 HPV infections, the following quantitative PCR assay was used:
Solutions of the tested RNases were prepared in cell culture medium without use of dimethyl sulfoxide (“DMSO”). DMSO is unnecessary because the tested RNases are water-soluble.
HPV is an DNA virus. Antiviral activity against HPV type 11 was evaluated using a quantitative reverse transcriptase PCR (QRT-PCR) assay. Initially, on Day 1, 1 million A-431 cells were placed in 6-well dishes in Dulbecco's Modified Eagle Medium (“DMEM”) supplemented with 10% fetal bovine serum (“FBS”). The cells were then incubated for two days at 37° C.
After this incubation period, on day 2 replicate aliquots of HPV-11 were added to each non-control well, representing a multiplicity of infection (“MOI”) of 150 particles per cell in DMEM containing 2.5% FBS.
One day later, i.e. on day 3, DMEM with 10% FBS was added to each cell culture well.
One day later, i.e. on day 4, the tested compounds were added to the non-control cell culture wells. Control wells received media alone, or the vehicle used to dilute the tested compounds. Cidofovir diluted to 300 ug/ml was used as a positive control. […]
Finally, one day later, on […], QRT-PCR was carried out to quantitate the proportion of viral E1^E4 transcripts and a cellular reference RNA for the TATA-binding protein (“TBP”). […]

[2] = tested on: cancer cells; conditions: because of enzymatic activity against RNA; cited from earlier work
[3] = cited from earlier work

Val11, Asn20, Arg103—Ranpirnase ['805 variant]
activity against type 11 HPV (as seen in FIG. 1; SI = CC50/EC50) [1]: extraordinarily active | cytotoxicity to cancer cells [2]: cytotoxic to certain cancer cells

B1: ranpirnase (protein, UniProt P22069 1-104, looked up)
Protein P-30: QDWLTFQKKHITNTRDVDCDNIMSTNLFHCKDKNTFIYSRPEPVKAICKGIIASKNVLTTSEFYLSDCNVTSRPCKYKLKKSTNKFCVTCENQAPVHFVGVGSC
notes: An RNase disclosed and claimed in U.S. Pat. No. 5,559,212; registered trademark ONCONASE
activity against type 11 HPV (as seen in FIG. 1; SI = CC50/EC50) [1]: extraordinarily active | cytotoxicity to cancer cells [2]: cytotoxic to cancer cells | toxicity and tolerability in humans [3]: non-toxic and well-tolerated
